Experimental findings from a protein production outcome set (Wang et al. 2014) are described below.
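Also: failed if final PepcDB status was selected cloned or expressed and not failed if soluble or beyond.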

This series is described as follows: label from the status in PepcDB records.
As to “MIYYGTMFDHKVRFSIVRMREVVEEARNRHALSYLATVVLGRALIGAALVTPWLAEKERWTLDIEGNGPIRRVVAQSTSEFTVRGYVANPKVELPLNEKGKFDVAGAIGQGVLRVVRDLGLKTPFVSQVPLVSGEIAEDLAYYFAVSEQIPSAFSIGVLVDSDGVKIAGGFAVQIIDRTLEQEKVEMIEKNIKNLPSISKLFQEAEPLDVLERIFGEKVGFVETAEIKYKCDCNREKAKNALLVLDKKELEDMRKEGKGEVVCKWCNTRYVFSEEELEELLKFKVDDSGS”, the protein production entry is “not failed”.

For the sequence “MSSKRLVIVGGGITGLAAAYYAERAFPDLNITLLEAGERLGGKVATYREDGFTIERGPDSYVARKHILTDLIEAIGLGEKLVRNNTSQAFILDTGGLHPIPKGAVMGIPTDLDLFRQTTLLTEEEKQEVADLLLHPSDSLRIPEQDIPLGEYLRPRLGDALVEKLIEPLLSGIYAGNIDQMSTFATYPQFVANEQKAGSLFEGMRLMRPLDQLPQTPQTTIKATGQFLSLETGLESLIERLEEVLERSEIRLETPLLAISREDGRYRLKTDHGPEYADYVLLTIPHPQVVQLLPDAHLPELEQLTTHSTATVTMIFDQQQSLPIEGTGFVVNRRAPYSITACTAIDQKWNHSAPDHTVLRAFVGRPGNDHLVHESDEVLQQAVLQDLEKICGRTLEPKQVIISRLMDGLPAYTVGHADRIQRVREEVLAQYPGIYLAGLAYDGVGLPDCVASAKTMIESIELEQSHTDESVNET”, the protein production entry was “not failed”.

In the case of “RTHTGEKPYACSHCDKTFRQKQLLDMHFKRYHDPNFVPAAFVCSKCGKTFTRRNTMARHADNCAGPDGVEGEN”, the protein production entry is “not failed”. Then “MPKVSVVIPAYNAMPYLPETLESVLRQTYHDFEVVVVNDGSSDNTEEWVSQILDPRLKLISQANQGLAGARNTGIVNASGEYIAFLDADDIWEPTKLAKQVSVLDENPTVGLVYTWVAYIDEQGKSTGKIFKNQVEGYVWPQLTEHNIVECGSVALVRRVCFEKMGLFDRNLGSYVEDWDMWLRIATSYDFKVVKEALVYYRQRSNSASKNWEAMAHSFAIVIEKAFATASQDLQVLKNKSYGFTYLCLAWKPLQSFQKDYQKSREFCQQAVAYYPSLRFSQEYIRLSIAINLMRWFGADGYSKLLPLFHTMRRVKLALQK”, with “failed”; and “KLKISEASLEDYSEVVHLFNRNHVYQFPDGRPLTVDDLDLTLKVKEVTHLFLLKNHGVLIGTSAFFKFITYGCLDWNSSFSGFLLIDSKSRSGQAITYLYKTILKKITKLKFSNIYTEISNYNKPSLALSKLNGFKEYDKTYEDILHCRSLRSHL”, with “failed”.

Take “KSEKRMKLTLKGGAAVDPDSGLEHSAHVLEKGGKVFSATLGLVDIVKGTNSYYKLQLLEDDKENRYWIFRSWGRVGTVIGSNKLEQMPSKEDAIEHFMKLYEEKTGNAWHSKNFTKYPKKFYPLEI”: the protein production result was “not failed”. Then “MQSAYSFLPQVIAHRGSSGQAPENTLASLHLAGQQGIKWVEIDVMLSGDGIPVIFHDDYLSRTTDGDGLIYKTPLAELKQLDAGSWKGQEYQQETIPTLLEAIEVISQYGMGLNLELKPCEGLEEETIAASVEVLKQHWPQDLPLLFSSFNYFALVSAKALWPEIARGYNVSAIPSAWQERLEHLDCAGLHIHQSFFDVQQVSDIKAAGYKVLAFTINDESLALKLYNQGLDAVFSDYPQKIQSAIDSHIN”, with “not failed”; and “MGKFLIPIEFVFLAIAMTCYLWHRQNQERRRIEISIKQQTQRERFINQITQHIRQSLNLETVLNTTVAEVKTLLQVDRVLIYRIWQDGTGSAITESVNANYPSILGRTFSDEVFPVEYHQAYTKGKVRAINDIDQDDIEICLADFVKQFGVKSKLVVPILQHNRASSLDNESEFPYLWGLLITHQCAFTRPWQPWEVELMKQLANQVAIAIQQSELYEQLQQLNKDLENRVEKRTQQLAATNQSLRMEISERQKTEAALRHTNHTLQSLIAASPRGIFTLNLADQIQIWNPTAERIFGWTETEIIAHPELLTSNILLEDYQQFKQKVLSGMVSPSLELKCQKKDGSWIEIVLSAAPLLDSEENIAGLVAVVADITEQKRQAEQIRLLQSVVVNTNDAVVITEAEPIDDPGPRILYVNEAFTKITGYTAEEMLGKTPRVLQGPKTSRTELDRVRQAISQWQSVTVEAEVLNDSYKEKKSPLK”, with “failed”; and “MDGASRENPGLAAAGGAVRDGNENWVGVFALNIEICSAPLAELWGLYYGLHIVWEQGITRLELEVDSKIVVGFLQTGIPDSHPLSFLLRLCYGFISRDWLVRISHVYREVNRLADGLANYAFSLPLGLYVFNSVPDSIASFVLEDARMLEEYRMKFWLLEDLGLRHCGNVKANGFHRVSAYPREKSHGRHRLYVLHY”, with “failed”.

For the sequence “SKIIDIKTSIIKIPLKRTFITAVRSTNHIDSLAVELTLDNGVKGYGVAPATTAITGDTLQGMQYIIREIFAPVILGSDLSDYKQTLELAFKKVMFNSAAKMAIDLAYHDLLAKEQDISVAKLLGAKANSIVTDVSISCGNVAETIQNIQNGVEANFTAIKVKTGADFNRDIQLLKALDNEFSKNIKFRFDANQGWNLAQTKQFIEEINKYSLNVEIIEQPVKYYDIKAMAEITKFSNIPVVADESVFDAKDAERVIDEQACNMINIKLAKTGGILEAQKIKKLADSAGISCMVGCMMESPAGILATASFALAEDITVADLDPLDWVAKDLYSDYITFNEPNIILKDNLKGFGFNL”, the protein production entry is on record as “not failed”.

As to “MIERLRGALASASFPVMALLLLSAIVVYPLWTMLFLGAVFAYIVRPVALRINRRIPYLSVSIILAMIVVIMPLVGILVFTVDSIINSAPSLLSLAGSIHVPGAGNLQPSAENTLANLRTVLRDILSGSLNYVVAILQSVPMISLQLFVFLSSTFYFARDGKRLVGYIRTLIPEETRPFMERMASETERVLLSIFYGHFLTALAIGLMAAVGFHLLGYPYAILLGIMTGLFQLIPVIGPWAAYTPLSIYDFVTGNILRGVLVLIFGLFLSTIDIYLRPKLSGKYADIHPMIFLVGFLGGPVVWGVAGFIVGPLVLGLAYAALEAYRMESGGEEVQ”, the protein production result was “failed”. Then “MNVDILKQRAKAFDYVFDAIVVTDLQGFIIDWNKGSETLYGYSKEQAIGQPVNMLHVPGDTEHITSEVISAVENQGKWTGEIRMLHKDGHIGWIESMCVPIYGENYQMVGALGINRDITKRKKELEHHHHHH”, with “not failed”; and “MAHEAQKAIARNSLLIRSLPEQHVDALLSQAVWRSYDRGETLFLQEEKAQAIHVVIDGWVKLFRMTPTGSEAVVSVFTRGESFGEAVALRNTPYPVSAEAVTPCEVMHIPSPVFVSLMRRDPEICISILATTFGHLHSLVAQLEQLKAQTGAQRVAEFLLELCDCDTGACEVTLPYDKMLIAGRLGMKPESLSRAFSRLKAAGVTVKRNHAEIEDIALLRDYAESDPADSWSKS”, with “not failed”.

With “MKSKRGFTLLEVLVALAIFATAAISVIRSVSQHINTVNYLEEKMFAAMVVDNQMAQVMLNPQSLAAREGSEQMAGRTWYWKLSPVKTADNLLKAFDVSVATEKGATPVVTVRSYVAN”, the protein production result was “failed”. As to “MSDWADLMNDLNKLQHSDAVTTAWQFTEQVPHGRDLGMQVVSVDQGQVCMRLTPQSWMFAHKDTKEICTSVLYSLADSAGGLAVFAGALELMPIATLDLRMDYLRPAIGDRALSAVATCRHLSDDVAFIHCDILSEGNRELLATANATFMRNTQGQQLHAGGPGKESA”, the protein production entry is given as “failed”.
